Laboratory results published in PMC4371794.
Blank lines part the entries; values can stand above or below the substance they belong to.

Molecular target: R499D-quad-PDE4D5
Test: yeast two-hybrid, quantitative β-galactosidase assay
Details: parent: est. 18, read off a plot

response (bar labelled DD1 sequence ANA): 0.9 arbitrary
Substance: PDE4D5 (wild-type, full-length; "long") (from UniProt Q08499-6) binder:R173A; binder:N175A; target:R173A; target:N174A; target:N175A; target:E228A; target:T229A; target:L230A; target:L306A; target:M307A; target:H308A; target:K323A; target:T324A; target:E325A; target:R499D

response (bar labelled DD1 sequence RAN): 1.9 arbitrary
Substance: PDE4D5 (wild-type, full-length; "long") (from UniProt Q08499-6) binder:N174A; target:R173A; target:N174A; target:N175A; target:E228A; target:T229A; target:L230A; target:L306A; target:M307A; target:H308A; target:K323A; target:T324A; target:E325A; target:R499D

response (bar labelled DD1 sequence ANN): 5.4 arbitrary
Substance: PDE4D5 (wild-type, full-length; "long") (from UniProt Q08499-6) binder:R173A; target:R173A; target:N174A; target:N175A; target:E228A; target:T229A; target:L230A; target:L306A; target:M307A; target:H308A; target:K323A; target:T324A; target:E325A; target:R499D

response (bar labelled DD1 sequence RAA): 7.1 arbitrary
Substance: PDE4D5 (wild-type, full-length; "long") (from UniProt Q08499-6) binder:N174A; binder:N175A; target:R173A; target:N174A; target:N175A; target:E228A; target:T229A; target:L230A; target:L306A; target:M307A; target:H308A; target:K323A; target:T324A; target:E325A; target:R499D

response (bar labelled DD1 sequence AAA): 1.1 arbitrary
Substance: PDE4D5 (wild-type, full-length; "long") (from UniProt Q08499-6) binder:R173A; binder:N174A; binder:N175A; target:R173A; target:N174A; target:N175A; target:E228A; target:T229A; target:L230A; target:L306A; target:M307A; target:H308A; target:K323A; target:T324A; target:E325A; target:R499D

response (bar labelled DD1 sequence RNA): 5.1 arbitrary
Substance: PDE4D5 (wild-type, full-length; "long") (from UniProt Q08499-6) binder:N175A; target:R173A; target:N174A; target:N175A; target:E228A; target:T229A; target:L230A; target:L306A; target:M307A; target:H308A; target:K323A; target:T324A; target:E325A; target:R499D
